The data set relates to F1*sub RNA substrate (template-directed ligation). In words: fraction ligated after 30 min (ligated reads / total reads); higher = more ligase activity; sequences stand for … in GAGACCGCAACTGAAAAGTTGT…AGTTCTGCACGTAGAAGCAAAAGGC
The following applies: 42 °C. The method in brief:
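Oligo-pool templates underwent PCR amplification, T7 transcription and gel purification to yield ribozyme variants. Gel-separated ligated and unligated bands were converted to complementary DNA with barcoded primers and sequenced on a MiSeq, keeping core bases of quality ≥20. The ratio of ligated reads to total reads gave the fraction ligated for every variant.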
Take “TATCACTTGTCGTAAGACACTTTGATGGGTTG [2d288]”: the fraction ligated was 0.755.
Then “TATCACTTGTCGTAAGACACTTTGATGGTTA [3d2267]”, with 0.00859; and “TATCACTTGTCGTAAGACACTTTGATGGTTG [3d2268]”, with 0.0103; and “TATCACTTGTCGTAAGACACTTTGATGGTTGA [2d286]”, with 0.0395.
Then “TATCACTTGTCGTAAGACACTTTGGAGGGTT [3d2279]”, with 0.0132; and “TATCACTTGTCGTAAGACACTTTGGAGGGTTA [2d294]”, with 0.0266; and “TATCACTTGTCGTAAGACACTTTGGAGGGTTG [2d295]”, with 0.0513.
Then “TATCACTTGTCGTAAGACACTTTGGAGGTTA [3d2277]”, with 0.0104.
As for “TATCACTTGTCGTAAGACACTTTGGAGGTTG [3d2278]”, the fraction ligated was 0.00797.
Then “TATCACTTGTCGTAAGACACTTTGGAGGTTGA [2d293]”, with 0.0113; and “TATCACTTGTCGTAAGACACTTTGGATGGGTT [2d298]”, with 0.772; and “TATCACTTGTCGTAAGACACTTTGGATGGTT [3d2281]”, with 0.024.
Then “TATCACTTGTCGTAAGACACTTTGGATGGTTA [2d296]”, with 0.447; and “TATCACTTGTCGTAAGACACTTTGGATGGTTG [2d297]”, with 0.531; and “TATCACTTGTCGTAAGACACTTTGGGGGTTA [3d2271]”, with 0.0237.
Turning to “TATCACTTGTCGTAAGACACTTTGGGGGTTG [3d2272]”, the fraction ligated was determined as 0.0105.
Then “TATCACTTGTCGTAAGACACTTTGGGGGTTGA [2d289]”, with 0.0225.
Then “TATCACTTGTCGTAAGACACTTTGGGGTTGA [3d2260]”, with 0.0415.
“TATCACTTGTCGTAAGACACTTTGGTGGGTT [3d2275]” gave a fraction ligated of 0.011.
Then “TATCACTTGTCGTAAGACACTTTGGTGGGTTA [2d291]”, with 0.018.
In turn, “TATCACTTGTCGTAAGACACTTTGGTGGGTTG [2d292]” showed a fraction ligated of 0.0944.
Then “TATCACTTGTCGTAAGACACTTTGGTGGTTA [3d2273]”, with 0.0182; and “TATCACTTGTCGTAAGACACTTTGGTGGTTG [3d2274]”, with 0.0129; and “TATCACTTGTCGTAAGACACTTTGGTGGTTGA [2d290]”, with 0.0232.
Then “TATCACTTGTCGTAAGACACTTTGTGGGTTA [3d2262]”, with 0.00904.
Then “TATCACTTGTCGTAAGACACTTTGTGGGTTG [3d2263]”, with 0.00738.
Sequence “TATCACTTGTCGTAAGACACTTTGTGGGTTGA [2d284]” yielded a fraction ligated of 0.0141.
Then “TATCACTTGTCGTAAGACACTTTGTGGTTGA [3d2261]”, with 0.0088.
“TATCACTTGTCGTAAGACACTTTTGGGTTGA [3d2255]” gave a fraction ligated of 0.0315.
The sequence “TATCACTTGTCGTAAGACATGGATGGGTTGA [3d2207]” returned a fraction ligated of 0.808.
Then “TATCACTTGTCGTAAGACATTGATGGGTTGA [3d2208]”, with 0.778; and “TATCACTTGTCGTAAGACATTGGAGGGTTGA [3d2210]”, with 0.0593; and “TATCACTTGTCGTAAGACATTGGATGGGTTA [3d2212]”, with 0.78.
Then “TATCACTTGTCGTAAGACATTGGATGGGTTG [3d2213]”, with 0.797; and “TATCACTTGTCGTAAGACATTGGATGGGTTGA [2d269]”, with 0.815; and “TATCACTTGTCGTAAGACATTGGATGGTTGA [3d2211]”, with 0.0757.
Consider “TATCACTTGTCGTAAGACATTGGTGGGTTGA [3d2209]”, for which the fraction ligated turned out to be 0.0429.
Then “TATCACTTGTCGTAAGACATTTATGGGTTGA [3d2214]”, with 0.0203; and “TATCACTTGTCGTAAGACATTTGAGGGTTGA [3d2216]”, with 0.00411.
Then “TATCACTTGTCGTAAGACATTTGATGGGTTA [3d2218]”, with 0.0152.
Then “TATCACTTGTCGTAAGACATTTGATGGGTTG [3d2219]”, with 0.098; and “TATCACTTGTCGTAAGACATTTGATGGGTTGA [2d270]”, with 0.291; and “TATCACTTGTCGTAAGACATTTGATGGTTGA [3d2217]”, with 0.00686.
The sequence “TATCACTTGTCGTAAGACATTTGGAGGGTTA [3d2225]” yielded a fraction ligated of 0.0022.
Then “TATCACTTGTCGTAAGACATTTGGAGGGTTG [3d2226]”, with 0.00325; and “TATCACTTGTCGTAAGACATTTGGAGGGTTGA [2d272]”, with 0.015; and “TATCACTTGTCGTAAGACATTTGGAGGTTGA [3d2224]”, with 0.00439.
Then “TATCACTTGTCGTAAGACATTTGGATGGGTT [3d2229]”, with 0.73.
Then “TATCACTTGTCGTAAGACATTTGGATGGGTTA [2d274]”, with 0.806; and “TATCACTTGTCGTAAGACATTTGGATGGGTTG [2d275]”, with 0.828.
In turn, “TATCACTTGTCGTAAGACATTTGGATGGTTA [3d2227]” returned a fraction ligated of 0.0433.
Then “TATCACTTGTCGTAAGACATTTGGATGGTTG [3d2228]”, with 0.0492.
Then “TATCACTTGTCGTAAGACATTTGGATGGTTGA [2d273]”, with 0.121; and “TATCACTTGTCGTAAGACATTTGGGGGTTGA [3d2220]”, with 0.0157.
Then “TATCACTTGTCGTAAGACATTTGGTGGGTTA [3d2222]”, with 0.00331; and “TATCACTTGTCGTAAGACATTTGGTGGGTTG [3d2223]”, with 0.0154; and “TATCACTTGTCGTAAGACATTTGGTGGGTTGA [2d271]”, with 0.0311.
In turn, “TATCACTTGTCGTAAGACATTTGGTGGTTGA [3d2221]” returned a fraction ligated of 0.0037.
Then “TATCACTTGTCGTAAGACATTTGTGGGTTGA [3d2215]”, with 0.00941; and “TATCACTTGTCGTAAGACCTGGATGGGTTGA [3d2183]”, with 0.757; and “TATCACTTGTCGTAAGACCTTGATGGGTTGA [3d2184]”, with 0.766.
Then “TATCACTTGTCGTAAGACCTTGGAGGGTTGA [3d2186]”, with 0.0676; and “TATCACTTGTCGTAAGACCTTGGATGGGTTA [3d2188]”, with 0.771; and “TATCACTTGTCGTAAGACCTTGGATGGGTTG [3d2189]”, with 0.79.
Then “TATCACTTGTCGTAAGACCTTGGATGGGTTGA [2d262]”, with 0.791; and “TATCACTTGTCGTAAGACCTTGGATGGTTGA [3d2187]”, with 0.127.
“TATCACTTGTCGTAAGACCTTGGTGGGTTGA [3d2185]” came in with a fraction ligated of 0.0725.
Then “TATCACTTGTCGTAAGACCTTTATGGGTTGA [3d2190]”, with 0.11; and “TATCACTTGTCGTAAGACCTTTGAGGGTTGA [3d2192]”, with 0.0254; and “TATCACTTGTCGTAAGACCTTTGATGGGTTA [3d2194]”, with 0.0671.
Then “TATCACTTGTCGTAAGACCTTTGATGGGTTG [3d2195]”, with 0.513.
In turn, “TATCACTTGTCGTAAGACCTTTGATGGGTTGA [2d263]” showed a fraction ligated of 0.76.
Then “TATCACTTGTCGTAAGACCTTTGATGGTTGA [3d2193]”, with 0.0397; and “TATCACTTGTCGTAAGACCTTTGGAGGGTTA [3d2201]”, with 0.0991.
Regarding “TATCACTTGTCGTAAGACCTTTGGAGGGTTG [3d2202]”, the fraction ligated is 0.0402.
Then “TATCACTTGTCGTAAGACCTTTGGAGGGTTGA [2d265]”, with 0.072.
Then “TATCACTTGTCGTAAGACCTTTGGAGGTTGA [3d2200]”, with 0.049.
In turn, “TATCACTTGTCGTAAGACCTTTGGATGGGTT [3d2205]” showed a fraction ligated of 0.744.
In turn, “TATCACTTGTCGTAAGACCTTTGGATGGGTTA [2d267]” came in with a fraction ligated of 0.788.
“TATCACTTGTCGTAAGACCTTTGGATGGGTTG [2d268]” gave a fraction ligated of 0.828.
“TATCACTTGTCGTAAGACCTTTGGATGGTTA [3d2203]” showed a fraction ligated of 0.127.
Then “TATCACTTGTCGTAAGACCTTTGGATGGTTG [3d2204]”, with 0.139; and “TATCACTTGTCGTAAGACCTTTGGATGGTTGA [2d266]”, with 0.285.
Then “TATCACTTGTCGTAAGACCTTTGGGGGTTGA [3d2196]”, with 0.0519; and “TATCACTTGTCGTAAGACCTTTGGTGGGTTA [3d2198]”, with 0.0357; and “TATCACTTGTCGTAAGACCTTTGGTGGGTTG [3d2199]”, with 0.0351.
“TATCACTTGTCGTAAGACCTTTGGTGGGTTGA [2d264]” yielded a fraction ligated of 0.114.
Then “TATCACTTGTCGTAAGACCTTTGGTGGTTGA [3d2197]”, with 0.0467; and “TATCACTTGTCGTAAGACCTTTGTGGGTTGA [3d2191]”, with 0.0153; and “TATCACTTGTCGTAAGACTTGGATGGGTTGA [3d2107]”, with 0.771.
Then “TATCACTTGTCGTAAGACTTTGATGGGTTGA [3d2108]”, with 0.76; and “TATCACTTGTCGTAAGACTTTGGAGGGTTGA [3d2110]”, with 0.0282; and “TATCACTTGTCGTAAGACTTTGGATGGGTTA [3d2112]”, with 0.792.
Then “TATCACTTGTCGTAAGACTTTGGATGGGTTG [3d2113]”, with 0.796; and “TATCACTTGTCGTAAGACTTTGGATGGGTTGA [2d244]”, with 0.821.
Turning to “TATCACTTGTCGTAAGACTTTGGATGGTTGA [3d2111]”, the fraction ligated was determined as 0.133.
Then “TATCACTTGTCGTAAGACTTTGGTGGGTTGA [3d2109]”, with 0.0656.

The values are drawn from the supplement of paper PMC6755084.
